According to patent publication US20240043537A1:
Numbering of substitutions follows the chain as printed.

B1: DART-A-M18 (bispecific antibody)
chain 1: DFVMTQSPDSLAVSLGERVTMSCKSSQSLLNSGNQKNYLTWYQQKPGQPPKLLIYWASTRESGVPDRFSGSGSGTDFTLTISSLQAEDVAVYYCQNDYSYPYTFGQGTKLEIKGGGSGGGGEVQLVESGGGLVQPGGSLRLSCAASGFTFSTYGMNWVRQAPGKGLEWVGRIRSKYNNYATYYADSVKDRFTISRDDSKNSLYLQMNSLKTEDTAVYYCVRHGNFGNSYVSWFAYWGQGTLVTVSSGGCGGGKVAALKEKVAALKEKVAALKEKVAALKE
chain 2: QAVVTQEPSLTVSPGGTVTLTCRSSTGAVTTSNYANWVQQKPGQAPRGLIGGTNKRAPWTPARFSGSLLGGKAALTITGAQAEDEADYYCALWYSNLWVFGGGTKLTVLGGGGSGGGGEVQLVQSGAELKKPGASVKVSCKASGYTFTDYYMKWVRQAPGQGLEWIGDIIPSNGATFYNQKFKGRVTITVDKSTSTAYMELSSLRSEDTAVYYCARSHLLRASWFAYWGQGTLVTVSSGGCGGGEVAALEKEVAALEKEVAALEKEVAALEK
B2: DART-A-M3 (bispecific antibody)
chain 1: B1 chain 1 with G154A, G226I
chain 2: B1 chain 2
B3: DART-A-M22 (bispecific antibody)
chain 1: B1 chain 1 with G154A, G223K, W232Y
chain 2: B1 chain 2
B4: DART-A-M4 (bispecific antibody)
chain 1: B1 chain 1 with G154A, Y229A
chain 2: B1 chain 2
B5: DART-A-M8 (bispecific antibody)
chain 1: B1 chain 1 with G154A, G223E
chain 2: B1 chain 2
B6: DART-A-M11 (bispecific antibody)
chain 1: B1 chain 1 with G154A, W232F
chain 2: B1 chain 2
B7: DART-A-M2 (bispecific antibody)
chain 1: B1 chain 1 with G154A, G223K, S231T
chain 2: B1 chain 2
B8: DART-A-M6 (bispecific antibody)
chain 1: B1 chain 1 with G154A, Y229Q
chain 2: B1 chain 2
B9: DART-A-M1 (bispecific antibody)
chain 1: B1 chain 1 with G154A, S231T
chain 2: B1 chain 2
B10: DART-A-M9 (bispecific antibody)
chain 1: B1 chain 1 with G154A, G223K
chain 2: B1 chain 2

Columns and labels:
[1] = molecular target: CD3 (as used for the BIACORE kinetics of Table 11) (UniProt P07766); assay: SPR (BIACORE)
Chain of CD3 (as used for the BIACORE kinetics of Table 11) (P07766 23-126): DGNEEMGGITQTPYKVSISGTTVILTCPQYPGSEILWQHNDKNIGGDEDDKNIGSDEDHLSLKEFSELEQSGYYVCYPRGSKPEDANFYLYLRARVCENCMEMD

[2] = molecular target: CD3 on T-cells (UniProt P07766); assay: cell-based or functional assay
Chain of CD3 on T-cells (P07766 23-207): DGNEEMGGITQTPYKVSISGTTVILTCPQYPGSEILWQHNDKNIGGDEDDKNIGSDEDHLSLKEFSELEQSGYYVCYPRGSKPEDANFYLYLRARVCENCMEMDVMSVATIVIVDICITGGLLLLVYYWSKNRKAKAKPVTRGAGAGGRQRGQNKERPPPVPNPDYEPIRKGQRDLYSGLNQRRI

Row | Binder | Kd [1] | R (KD ratio to DART-A-WT) [1] | R (ka ratio to DART-A-WT) [1] | R (kd ratio to DART-A-WT) [1] | koff [1] | kon [1] | EC50 of cytolysis at 18 hours (CTL assay, Pan-T-cells and MOLM-13, E:T = 5:1) [2] | EC50 of cytolysis at 42 hours (CTL assay, Pan-T-cells and MOLM-13, E:T = 5:1) [2] | R: ratio of 18 hour EC50 to DART-A-WT (CTL assay, Pan-T-cells and MOLM-13, E:T = 5:1) [2] | R: ratio of 42 hour EC50 to DART-A-WT (CTL assay, Pan-T-cells and MOLM-13, E:T = 5:1) [2] | max % CytoTox at 18 hours (CTL assay, Pan-T-cells and MOLM-13, E:T = 5:1) [2] | max % CytoTox at 42 hours (CTL assay, Pan-T-cells and MOLM-13, E:T = 5:1) [2]
1 | B1 | 205 nM | 25 | 0.6 | 14 | 0.0588 s⁻¹ | 287000 M⁻¹ s⁻¹ | 4.69 ng/mL | 0.91 ng/mL | 59.3 | 324 | 41.3% | 30.6%
2 | B2 | 18.5 nM | 2.3 | 0.9 | 2 | 0.0083 s⁻¹ | 449000 M⁻¹ s⁻¹ | 0.108 ng/mL | 0.006 ng/mL | 1.4 | 2.3 | 39.7% | 28.6%
3 | B3 | 6.6 nM | 0.8 | 4.7 | 3.8 | 0.0156 s⁻¹ | 2.37e+06 M⁻¹ s⁻¹ | 0.072 ng/mL | 0.01 ng/mL | 0.9 | 3.5 | 38.3% | 31.6%
4 | B4 | 25.7 nM | 3.1 | 1.6 | 5 | 0.0203 s⁻¹ | 790000 M⁻¹ s⁻¹ | 0.176 ng/mL | 0.011 ng/mL | 2.2 | 3.9 | 41.7% | 29.8%
5 | B5 | 6.91 nM | 0.8 | 2.3 | 1.9 | 0.00784 s⁻¹ | 1.13e+06 M⁻¹ s⁻¹ | 0.069 ng/mL | 0.005 ng/mL | 0.9 | 1.7 | 38.4% | 29.4%
6 | B6 | 19.2 nM | 2.4 | 2.8 | 6.5 | 0.0267 s⁻¹ | 1.39e+06 M⁻¹ s⁻¹ | 0.223 ng/mL | 0.016 ng/mL | 2.8 | 5.8 | 48.5% | 32.4%
7 | B7 | 12.7 nM | 1.6 | 6.1 | 9.6 | 0.0391 s⁻¹ | 3.07e+06 M⁻¹ s⁻¹ | 8.11 ng/mL | 0.693 ng/mL | 103 | 247 | 32.3% | 32.8%
8 | B8 | 28.8 nM | 3.5 | 1.4 | 4.9 | 0.0201 s⁻¹ | 699000 M⁻¹ s⁻¹ | 0.162 ng/mL | 0.011 ng/mL | 2.1 | 3.9 | 41.9% | 29.5%
9 | B9 | 159 nM | 19 | 0.8 | 16 | 0.065 s⁻¹ | 408000 M⁻¹ s⁻¹ | 19.6 ng/mL | 2.34 ng/mL | 249 | 832 | 32.3% | 32.4%
10 | B10 | 3.33 nM | 0.4 | 4.3 | 1.8 | 0.00716 s⁻¹ | 2.15e+06 M⁻¹ s⁻¹ | 0.075 ng/mL | 0.001 ng/mL | 1 | 0.4 | 38.2% | 30.5%
